The target of this experiment is persulfide dioxygenase from Pseudomonas aeruginosa (PaPDO) (Pseudomonas aeruginosa). Put plainly: SEC; Superdex 75 10/300, 20 mM Tris-HCl pH 8.0, 200 mM NaCl, 1 mL/min; calibrated with protein standards; elution at 10.8 mL.

On to “persulfide dioxygenase from Pseudomonas aeruginosa (PaPDO) (enzyme)”, for which the stoichiometry N – broadly, the number of molecules, sites or subunits per partner or assembly – was found to be 2.

For the origin of these results see article PMC12856154.
